From patent US20190309069A1 (SHANGHAI HENGRUI PHARMACEUTICAL, published 2019)

Experiments:
[1] = molecular target: T1, recombinant PD-1 extracellular domain Fc fusion protein (PD-1 Fc) (human, biotin label (sites not given) in the ELISA binding assay; unlabelled when coated in the ligand blocking assay); assay: ligand binding blocking ELISA as in Example 2, competitor biotin-labeled PD-L1
T1 construct: also called human PD-1Fc; human PD-1
Description: In this experiment, a 96-well plate was coated with a PD-1 protein with the extracellular domain fused with FC (PD-1-FC), and incubated with the test PD-1 antibody; later biotin-labeled PD-L1 was added for incubation. After washing the plate, the binding amount of biotin-labeled PD-L1 was detected; the blocking IC₅₀ value of PD-1 antibody for ligand PD-L1 binding was calculated.
PD-1-FC was diluted to 1 μg/ml with PH 9.6 CB buffer (1.59 g Na₂CO₃ and 2.93 g NaHCO₃ were dissolved in 1 L of distilled water), pipetted into a 96-well plate at 100 μl/well and standed for 16 h-20 h at 4° C. The 96-well plate was washed once with PBST (PH7.4 PBS, containing 0.05% tweeen20) after PBS buffer was removed, then the plate was incubated and blocked for 1 h at room temperature with 120 μl/well PBST/1% milk. After removal of the blocking solution, the plate was washed with PBST buffer once, followed by addition of 90 μl of test PD-1 antibody which was diluted to a suitable concentration with sample diluents (PH7.4 PBS containing 5% BSA, 0.05% Tween20), and incubated for 1 h at 4° C. Then 10× concentrations of biotin-labeled PD-L1 (Beijing Sino Biological Inc.) (10 μg/ml) was added to the plate at 10 μl/well, oscillated and mixed by an oscillator, and incubated at 37° C. for 1 h. After removal of the reaction system, the plate was washed for 6 times with PBST buffer, followed by addition of 100 ul/well Streptavidin-Peroxidase Polymer which was diluted by PBST at a ratio of 1:400, and incubated under oscillation for 50 min at room temperature. After being washed with PBST for 6 times, the plate was added with 100 μl/well TMB, and incubated for 5-10 min at room temperature. Then the reaction was terminated with addition of 100 μl/well 1M H₂SO₄. The absorbance value at 450 nm was read on the NOVOStar microplate reader; the blocking IC₅₀ value of PD-1 for ligand PD-L1 binding was calculated.
(§1) Humanized antibodies were subjected to ELISA binding assay (method is the same as that of Example 2), ligand binding blocking assay (method is the same as that of Example 2), and affinity kinetics experiment (method is the same as that of Example 5) in vitro.

[2] = molecular target: T1, recombinant PD-1 extracellular domain …; assay: ELISA as in Example 2, biotinylated PD-1 Fc captured on avidin
Description: The PD-1 antibody blocks signaling pathway of PD-1 and its ligand by binding to PD-1 extracellular domain. In vitro ELISA assay is used to detect the binding property of the PD-1 antibody. Biotinylated PD-1 extracellular domain FC fusion protein (PD-1 FC) is coated onto 96-well plates by binding to neutralization avidin. Signal intensity after the addition of the antibody is used to determine the binding property of the antibody and PD-1.
Neutralization avidin (binding to biotin) was diluted to 1 μl/ml with PBS buffer, pipetted into a 96-well plate with at 100 μl/well and standed for 16 h-20 h at 4° C. The 96-well plate was washed once with PBST (PH7.4 PBS, containing 0.05% tweeen20) after PBS buffer was removed, then the plate was incubated and blocked for 1 h at room temperature with addition of 120 μl/well PBST/1% milk. After removal of the blocking solution, the plate was washed with PBST buffer, followed by addition of 1 μg/ml biotin-labeled PD1-FC which was diluted by PBST/1% milk, and incubated for 1 h at room temperature. After removal of the blocking solution, the plate was washed with PBST buffer for 3 times, followed by addition of the test PD-1 antibody which was diluted to a suitable concentration by PBST/1% milk, and incubated for 1.5 h at room temperature. After removal of reaction system, the plate was washed for 3 times with PBST buffer, followed by addition of 100 μl/well HRP-labeled anti-murine secondary antibody (The Jackson Laboratory) which was diluted by PBST/1% milk, and incubated for 1 h at room temperature. After being washed with PBST for three times, the plate was added with 100 μl/well TMB, and incubated for 5-10 min at room temperature. Then the reaction was terminated with addition of 100μ/well 1M H₂SO₄. The absorbance value at 450 nm was read on NOVOStar microplate reader; the ELISA binding EC₅₀ value was calculated.
as §1

[3] = molecular target: T2, PD-1 His protein (Beijing Sino Biological Inc.) (UniProt Q15116 25-167, limits assumed); assay: Biacore SPR as in Example 5, PD-1 His as analyte
T2 construct: Bought reagent, analyte in the Biacore assay; not shown: His tag
Description: According to the instruction of a kit provided by Biacore, the test PD-1 antibody of the present invention was covalently linked to CM5 (GE) chip using a standard amino coupling method. Then a series of gradient concentrations of PD-1 His protein (Beijing Sino Biological Inc.), which were diluted in the same buffer, were loaded into each cycle successively. After that, the samples were regenerated with regenerated reagent in the kit. The antigen-antibody binding kinetics was tracked for 3 minutes and the dissociation kinetics was tracked for 10 minutes. The data obtained was analyzed by GE's BIAevaluation software using 1:1 (Langmuir) binding model.
as §1

Row | IC50 [1] [nM] | EC50 [2] [nM] | Kd [3] [nM] | Binder
1 | 1.36 | 0.14 | 3.89 | humanized antibody H005-4 (antibody, human IgG4 S228P, kappa, F234A L235A, name in Kabat numbering, V domains shown, Back-mutated variant of H005-1, IgG4 constant region) VH: EVQLVESGGGLVQPGGSLRLSCAASGFTFSSYMMSWVRQAPGKRLEWVATISGGGANTYYPDSVKGRFTISRDNAKNSLYLQMNSLRAEDTAVYYCARQLYYFDYWGQGTTVTVSS VL: DIQMTQSPSSLSASVGDRVTITCLASQTIGTWLTWYQQKPGKSPKLLIYTATSLADGVPSRFSGSGSGTDFTLTISSLQPEDFATYYCQQVYSIPWTFGGGTKVEIKR
2 | 1.33 | 0.15 | 2.45 | humanized antibody H005-3 (antibody, human IgG4 S228P, kappa, F234A L235A, name in Kabat numbering, V domains shown, Back-mutated variant of H005-1, IgG4 constant region) VH: EVQLVESGGGLVQPGGSLRLSCAASGFTFSSYMMSWVRQAPGKGLEWVATISGGGANTYYPDSVKGRFTISRDNAKNSLYLQMNSLRAEDTAVYYCARQLYYFDYWGQGTTVTVSS VL: DIQMTQSPSSLSASVGDRVTITCLASQTIGTWLTWYQQKPGKSPKLLIYTATSLADGVPSRFSGSGSGTDFTLTISSLQPEDFATYYCQQVYSIPWTFGGGTKVEIKR
3 | 1.27 | 0.14 | 2.98 | humanized antibody H005-2 (antibody, human IgG4 S228P, kappa, F234A L235A, name in Kabat numbering, V domains shown, Back-mutated variant of H005-1, IgG4 constant region) VH: EVQLVESGGGLVQPGGSLRLSCAASGFTFSSYMMSWVRQAPGKRLEWVATISGGGANTYYPDSVKGRFTISRDNAKNSLYLQMNSLRAEDTAVYYCARQLYYFDYWGQGTTVTVSS VL: DIQMTQSPSSLSASVGDRVTITCLASQTIGTWLTWYQQKPGKAPKLLIYTATSLADGVPSRFSGSGSGTDFTLTISSLQPEDFATYYCQQVYSIPWTFGGGTKVEIKR
